Source: publication PMC3666556
Read-outs that look alike come from different tables or passages of the source. Blank lines part the entries; values can stand above or below the substance they belong to.

Columns and labels:
Assay in all cases: cross-linking
[1] = target: K140C-apoA-I (human)
[2] = target: K140C-apoA-I (human); remark: listed apart in the source
[3] = target: G129C-apoA-I (human)
[4] = target: G129C-apoA-I (human); remark: listed apart in the source
[5] = target: K118C-apoA-I (human) (UniProt P02647)
[6] = target: K118C-apoA-I (human) (UniProt P02647); remark: listed apart in the source

percent homodimer [1]: 65%
percent homodimer [2]: 41%
Substance: K140C-apoA-I (natural protein)

percent homodimer [3]: 38%
percent homodimer [4]: 22%
Substance: G129C-apoA-I (natural protein)

percent homodimer [5]: 17%
percent homodimer [6]: 4%
Substance: K118C-apoA-I (from UniProt P02647 19-267) (natural protein)
